Measured values from paper PMC2625445, “Mycobacterium tuberculosis Rv3802c Encodes a Phospholipase/Thioesterase and Is Inhibited by the Antimycobacterial Agent Tetrahydrolipstatin” (PLoS ONE, 2009).

Key:
[1] = biological target: T1, Rv3802 (Mycobacterium tuberculosis, UniProt O53581); experiment: […]; TLC of […]-palmitoyl-CoA hydrolysis; type: biochemical
T1 construct: gene cut6

[2] = test system: CCCCCCCCCC(=O)SCCNC(=O)CCNC(=O)[C@H](O)C(C)(C)COP(=O)(O)OP(=O)(O)OC[C@H]1O[C@@H](n2cnc3c(N)ncnc32)[C@H](O)[C@@H]1OP(=O)(O)O; experiment: purified protein
[3] = test system: CCCCCCCCCCCCCCCC(=O)SCCNC(=O)CCNC(=O)[C@H](O)C(C)(C)COP(=O)(O)OP(=O)(O)OC[C@H]1O[C@@H](n2cnc3c(N)ncnc32)[C@H](O)[C@@H]1OP(=O)(O)O; experiment: purified protein

T1 sequence (O53581 37-336): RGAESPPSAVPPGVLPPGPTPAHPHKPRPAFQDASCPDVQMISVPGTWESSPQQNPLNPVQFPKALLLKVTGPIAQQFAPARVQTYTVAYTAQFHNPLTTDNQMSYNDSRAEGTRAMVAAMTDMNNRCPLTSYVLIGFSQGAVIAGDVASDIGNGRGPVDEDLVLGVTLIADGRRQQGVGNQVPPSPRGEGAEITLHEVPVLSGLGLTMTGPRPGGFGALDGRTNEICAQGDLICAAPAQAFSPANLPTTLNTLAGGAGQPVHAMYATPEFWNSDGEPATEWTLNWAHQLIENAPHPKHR

Row | Compound | Ki [1] | Km [2] | kcat [2] | kcat/Km [2] | Km [3]
1 | CCCCCCCCCCC[C@@H](C[C@@H]1OC(=O)[C@H]1CCCCCC)OC(=O)[C@H](CC(C)C)NC=O [THL, tetrahydrolipstatin] | 5 nM | – | – | – | –
2 | Rv3802 (Mycobacterium tuberculosis H37Rv) | – | 2280 µM | 0.0845 ± 0.0253 s⁻¹ | 37 ± 11.1 M⁻¹ s⁻¹ | 17 µM
